Consider ten molecules from paper doi:10.1101/2023.02.23.529646 (bioRxiv, 2023).

B3: ACAD9WT (res. 38-621) (enzyme)
chain: AFAKELFLGKIKKKEVFPFPEVSQDELNEINQFLGPVEKFFTEEVDSRKIDQEGKIPDETLEKLKSLGLFGLQVPEEYGGLGFSNTMYSRLGEIISMDGSITVTLAAHQAIGLKGIILAGTEEQKAKYLPKLASGEHIAAFCLTEPASGSDAASIRSRATLSEDKKHYILNGSKVWITNGGLANIFTVFAKTEVVDSDGSVKDKITAFIVERDFGGVTNGKPEDKLGIRGSNTCEVHFENTKIPVENILGEVGDGFKVAMNILNSGRFSMGSVVAGLLKRLIEMTAEYACTRKQFNKRLSEFGLIQEKFALMAQKAYVMESMTYLTAGMLDQPGFPDCSIEAAMVKVFSSEAAWQCVSEALQILGGLGYTRDYPYERILRDTRILLIFEGTNEILRMYIALTGLQHAGRILTTRIHELKQAKVSTVMDTVGRRLRDSLGRTVDLGLTGNHGVVHPSLADSANKFEENTYCFGRTVETLLLRFGKTIMEEQLVLKRVANILINLYGMTAVLSRASRSIRIGLRNHDHEVLLANTFCVEAYLQNLFSLSQLDKYAPENLDEQIKKVSQQILEKRAYICAHPLDRTC

The data set “mass photometry” concerns the molecule itself. Description: mass photometry.
The data set “dynamic light scattering” deals with the molecule itself. The experiment in a line: dynamic light scattering.
For the data set “ACAD9WT (res. 38-621)”, the target named is B3. Description: mass photometry.

The term stoichiometry N denotes a count of units in the complex or per binding partner.

B1: VLCADWT (res. 72-655) (enzyme)
chain: SFAVGMFKGQLTTDQVFPYPSVLNEEQTQFLKELVEPVSRFFEEVNDPAKNDALEMVEETTWQGLKELGAFGLQVPSELGGVGLCNTQYARLVEIVGMHDLGVGITLGAHQSIGFKGILLFGTKAQKEKYLPKLASGETVAAFCLTEPSSGSDAASIRTSAVPSPCGKYYTLNGSKLWISNGGLADIFTVFAKTPVTDPATGAVKEKITAFVVERGFGGITHGPPEKKMGIKASNTAEVFFDGVRVPSENVLGEVGSGFKVAMHILNNGRFGMAAALAGTMRGIIAKAVDHATNRTQFGEKIHNFGLIQEKLARMVMLQYVTESMAYMVSANMDQGATDFQIEAAISKIFGSEAAWKVTDECIQIMGGMGFMKEPGVERVLRDLRIFRIFEGTNDILRLFVALQGCMDKGKELSGLGSALKNPFGNAGLLLGEAGKQLRRRAGLGSGLSLSGLVHPELSRSGELAVRALEQFATVVEAKLIKHKKGIVNEQFLLQRLADGAIDLYAMVVVLSRASRSLSEGHPTAQHEKMLCDTWCIEAAARIREGMAALQSDPWQQELYRNFKSISKALVERGGVVTSNPLGF
For B1, the “stoichiometry N” value in “mass photometry” is 2.

B2: VLCAD_(ACAD9) (enzyme)
chain: SFAVGMFKGQLTTDQVFPYPSVLNEEQTQFLKELVEPVSRFFEEVNDPAKNDALEMVEETTWQGLKELGAFGLQVPSELGGVGLCNTQYARLVEIVGMHDLGVGITLGAHQSIGFKGILLFGTKAQKEKYLPKLASGETVAAFCLTEPSSGSDAASIRTSAVPSPCGKYYTLNGSKLWISNGGLADIFTVFAKTPVTDPATGAVKEKITAFVVERGFGGITHGPPEKKMGIKASNTAEVFFDGVRVPSENVLGEVGSGFKVAMHILNNGRFGMAAALAGTMRGIIAKAVDHATNRTQFGEKIHNFGLIQEKLARMVMLQYVTESMAYMVSANMDQGATDFQIEAAISKIFGSEAAWKVTDECIQILGGLGYTKEPGVERVLRDLRIFRIFEGTNDILRLFVALQGCMDKGKELSGLGSALKNPFGNAGLLLGEAGKQLRRRAGLGSGLSLSGLVHPELSRSGELAVRALEQFATVVEAKLIKHKKGIVNEQFLLQRLADGAIDLYAMVVVLSRASRSLSEGHPTAQHEKMLCDTWCIEAAARIREGMAALQSDPWQQELYRNFKSISKALVERGGVVTSNPLGF
As for B2, in the data set “mass photometry”, the “stoichiometry N” value was found to be 2.

For B3, the “stoichiometry N” value in “dynamic light scattering” amounted to 2.

B4: ACAD9_(VLCAD) (enzyme)
chain: AFAKELFLGKIKKKEVFPFPEVSQDELNEINQFLGPVEKFFTEEVDSRKIDQEGKIPDETLEKLKSLGLFGLQVPEEYGGLGFSNTMYSRLGEIISMDGSITVTLAAHQAIGLKGIILAGTEEQKAKYLPKLASGEHIAAFCLTEPASGSDAASIRSRATLSEDKKHYILNGSKVWITNGGLANIFTVFAKTEVVDSDGSVKDKITAFIVERDFGGVTNGKPEDKLGIRGSNTCEVHFENTKIPVENILGEVGDGFKVAMNILNSGRFSMGSVVAGLLKRLIEMTAEYACTRKQFNKRLSEFGLIQEKFALMAQKAYVMESMTYLTAGMLDQPGFPDCSIEAAMVKVFSSEAAWQCVSEALQIMGGMGFMRDYPYERILRDTRILLIFEGTNEILRMYIALTGLQHAGRILTTRIHELKQAKVSTVMDTVGRRLRDSLGRTVDLGLTGNHGVVHPSLADSANKFEENTYCFGRTVETLLLRFGKTIMEEQLVLKRVANILINLYGMTAVLSRASRSIRIGLRNHDHEVLLANTFCVEAYLQNLFSLSQLDKYAPENLDEQIKKVSQQILEKRAYICAHPLDRTC
Consider B4, for which the “stoichiometry N” value in the data set “mass photometry” turned out to be 2.

B5: ACAD9_(S191A) (enzyme)
chain: AFAKELFLGKIKKKEVFPFPEVSQDELNEINQFLGPVEKFFTEEVDSRKIDQEGKIPDETLEKLKSLGLFGLQVPEEYGGLGFSNTMYSRLGEIISMDGSITVTLAAHQAIGLKGIILAGTEEQKAKYLPKLASGEHIAAFCLTEPASGSDAAAIRSRATLSEDKKHYILNGSKVWITNGGLANIFTVFAKTEVVDSDGSVKDKITAFIVERDFGGVTNGKPEDKLGIRGSNTCEVHFENTKIPVENILGEVGDGFKVAMNILNSGRFSMGSVVAGLLKRLIEMTAEYACTRKQFNKRLSEFGLIQEKFALMAQKAYVMESMTYLTAGMLDQPGFPDCSIEAAMVKVFSSEAAWQCVSEALQILGGLGYTRDYPYERILRDTRILLIFEGTNEILRMYIALTGLQHAGRILTTRIHELKQAKVSTVMDTVGRRLRDSLGRTVDLGLTGNHGVVHPSLADSANKFEENTYCFGRTVETLLLRFGKTIMEEQLVLKRVANILINLYGMTAVLSRASRSIRIGLRNHDHEVLLANTFCVEAYLQNLFSLSQLDKYAPENLDEQIKKVSQQILEKRAYICAHPLDRTC
In the case of B5, in the data set “mass photometry”, the “stoichiometry N” value is 2.

B6: ACAD9_(A184S/SR194TS) (enzyme)
chain: AFAKELFLGKIKKKEVFPFPEVSQDELNEINQFLGPVEKFFTEEVDSRKIDQEGKIPDETLEKLKSLGLFGLQVPEEYGGLGFSNTMYSRLGEIISMDGSITVTLAAHQAIGLKGIILAGTEEQKAKYLPKLASGEHIAAFCLTEPSSGSDAASIRTSATLSEDKKHYILNGSKVWITNGGLANIFTVFAKTEVVDSDGSVKDKITAFIVERDFGGVTNGKPEDKLGIRGSNTCEVHFENTKIPVENILGEVGDGFKVAMNILNSGRFSMGSVVAGLLKRLIEMTAEYACTRKQFNKRLSEFGLIQEKFALMAQKAYVMESMTYLTAGMLDQPGFPDCSIEAAMVKVFSSEAAWQCVSEALQILGGLGYTRDYPYERILRDTRILLIFEGTNEILRMYIALTGLQHAGRILTTRIHELKQAKVSTVMDTVGRRLRDSLGRTVDLGLTGNHGVVHPSLADSANKFEENTYCFGRTVETLLLRFGKTIMEEQLVLKRVANILINLYGMTAVLSRASRSIRIGLRNHDHEVLLANTFCVEAYLQNLFSLSQLDKYAPENLDEQIKKVSQQILEKRAYICAHPLDRTC
Consider B6, for which the “stoichiometry N” value in the data set “mass photometry” stood at 2.

B7: ACAD9_(A184S) (enzyme)
chain: AFAKELFLGKIKKKEVFPFPEVSQDELNEINQFLGPVEKFFTEEVDSRKIDQEGKIPDETLEKLKSLGLFGLQVPEEYGGLGFSNTMYSRLGEIISMDGSITVTLAAHQAIGLKGIILAGTEEQKAKYLPKLASGEHIAAFCLTEPSSGSDAASIRSRATLSEDKKHYILNGSKVWITNGGLANIFTVFAKTEVVDSDGSVKDKITAFIVERDFGGVTNGKPEDKLGIRGSNTCEVHFENTKIPVENILGEVGDGFKVAMNILNSGRFSMGSVVAGLLKRLIEMTAEYACTRKQFNKRLSEFGLIQEKFALMAQKAYVMESMTYLTAGMLDQPGFPDCSIEAAMVKVFSSEAAWQCVSEALQILGGLGYTRDYPYERILRDTRILLIFEGTNEILRMYIALTGLQHAGRILTTRIHELKQAKVSTVMDTVGRRLRDSLGRTVDLGLTGNHGVVHPSLADSANKFEENTYCFGRTVETLLLRFGKTIMEEQLVLKRVANILINLYGMTAVLSRASRSIRIGLRNHDHEVLLANTFCVEAYLQNLFSLSQLDKYAPENLDEQIKKVSQQILEKRAYICAHPLDRTC
For B7, the binding result in “dynamic light scattering” is “binds”.

B8: ECSIT_(CTER-W324A) (domain or fragment)
chain: QDPVELAMFGLRHMEPDLSARVTIYQVPLPKDSTGAADPPQPHIVGIQSPDQQAALARHNPARPVFVEGPFSLWLRNKCVYYHILRADLLPPEEREVEETPEEANLYYPMQLDLEYVRSGWDNYEFDINEVEEGPVFAMCMAGAHDQATMAKWIQGLQETNPTLAQIPVVFRLAGSTRELQTSSAGLEEPPLPEDHQEEDDNLQRQQQGQS
With B8, the binding result in the data set with ACAD9WT (res. 38-621) is “binds”.

B9: ECSIT_(CTER-Y327F) (domain or fragment)
chain: QDPVELAMFGLRHMEPDLSARVTIYQVPLPKDSTGAADPPQPHIVGIQSPDQQAALARHNPARPVFVEGPFSLWLRNKCVYYHILRADLLPPEEREVEETPEEWNLFYPMQLDLEYVRSGWDNYEFDINEVEEGPVFAMCMAGAHDQATMAKWIQGLQETNPTLAQIPVVFRLAGSTRELQTSSAGLEEPPLPEDHQEEDDNLQRQQQGQS
Consider B9, for which, in the data set with ACAD9WT (res. 38-621), the binding result is given as “binds”.

B10: ECSIT_(CTER-Y328A) (domain or fragment)
chain: QDPVELAMFGLRHMEPDLSARVTIYQVPLPKDSTGAADPPQPHIVGIQSPDQQAALARHNPARPVFVEGPFSLWLRNKCVYYHILRADLLPPEEREVEETPEEWNLYAPMQLDLEYVRSGWDNYEFDINEVEEGPVFAMCMAGAHDQATMAKWIQGLQETNPTLAQIPVVFRLAGSTRELQTSSAGLEEPPLPEDHQEEDDNLQRQQQGQS
As to B10, the binding result in the data set with ACAD9WT (res. 38-621) is “binds”.
